Experimental data published in patent US6689878B2, “Target of RNAIII activating protein (TRAP)” (The Regents of the University of California, priority 1998, dated 2004).

Experiment: Sensitivity of TRAP phosphorylation to acidic and basic conditions
Format: physicochemical, Staphylococcus aureus
Excerpt: Two-component systems act through phosphorylation of the substrate domain of the sensor protein and subsequent transfer of the phosphate to an aspartate residue in the regulator protein. The initial phosphorylation is catalyzed by a protein histidine kinase domain in the sensor protein and results in an N-phosphorylated histidine residue, which is stable in alkaline conditions but not in acidic conditions (Wei et al. Methods Enymol. 200:388-414 (1991)). To test whether TRAP may be histidine-phosphorylated and therefore a candidate sensor to RAP, phosphorylated TRAP was tested for sensitivity to acidic and basic conditions. Phosphorylated TRAP was incubated at pH ranging from 3-10, for 10 min at room temperature. The mixture was then applied to SDS PAGE and the gel autoradiographed.

B1: Phosphorylated TRAP: approximately 21 kDa S. aureus protein target of RAP, SEQ ID NO:2, phosphorylated by RAP (protein)
chain: MKKLYTSYGTYGFLHQIKINNPTHQLFQFSASDTSVIFEETDGETVLKSPSIYEVIKEIGEFSEHHFYCAIFIPSTEDHAYQLEKKLISVDDNFRNFGGFKSYRLLRPAKGTTYKIYFGFADRHAYEDFKQSDAFNDHFSKDALSHYFGSSGQHSSYFERYLYPIKE
modifications: phosphorylated
Lower pHs (range tested pH 3-10), 10 min at room temperature
  Stability of TRAP phosphorylation in lower pHs: labile
pH 8-10, 10 min at room temperature
  Stability of TRAP phosphorylation at pH 8-10: stable
